Earlier results as cited in article PMC3439503.

Molecular target: dystrophin N-ABD N-ABD (Homo sapiens) (UniProt P11532)

## dystrophin N-ABD N-ABD (from UniProt P11532)
  Kd: 4 µM
